# What was measured:
# [1] = target: PqqE in complex with PqqD (PqqDE) (Methylorubrum extorquens, UniProt P71517); experiment: HDX-MS, PqqDES versus PqqDE; format: binding; settings: no PqqA, no reductant, site at RS Fe4S4 cluster (peptide 21-32)
# [2] = target: PqqD (Methylorubrum extorquens) (UniProt Q49148); settings: cited from earlier work
# [3] = target: PqqE (Methylorubrum extorquens) (UniProt B7KXC6); settings: cited from earlier work
# PqqE (Methylorubrum extorquens), sequence (B7KXC6 whole entry): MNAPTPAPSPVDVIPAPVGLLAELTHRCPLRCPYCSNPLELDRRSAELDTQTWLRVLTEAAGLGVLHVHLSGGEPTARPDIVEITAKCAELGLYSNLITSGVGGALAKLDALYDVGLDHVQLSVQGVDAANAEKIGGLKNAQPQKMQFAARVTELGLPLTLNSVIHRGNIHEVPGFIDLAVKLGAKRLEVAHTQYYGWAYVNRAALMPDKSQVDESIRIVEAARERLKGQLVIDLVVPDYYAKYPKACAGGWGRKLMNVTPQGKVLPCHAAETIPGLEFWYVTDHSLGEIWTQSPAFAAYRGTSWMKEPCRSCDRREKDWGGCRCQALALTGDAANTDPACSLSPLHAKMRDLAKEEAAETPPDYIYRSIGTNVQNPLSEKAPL
# PqqE in complex with PqqD (PqqDE), sequence (Q49150 279-372): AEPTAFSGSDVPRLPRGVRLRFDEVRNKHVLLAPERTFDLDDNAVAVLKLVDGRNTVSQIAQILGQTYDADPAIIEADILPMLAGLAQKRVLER
# PqqE in complex with PqqD (PqqDE), sequence (P71517 whole entry): as the sequence (B7KXC6 whole entry) above, with S286A, Q293K counted along it
# PqqD, sequence (Q49148 whole entry): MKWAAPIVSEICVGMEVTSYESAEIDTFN
compound,measurement,setting,value
"C[S+](CC[C@H](N)C(=O)O)C[C@H]1O[C@@H](n2cnc3c(N)ncnc32)[C@H](O)[C@@H]1O (stereo partly drawn) [SAM, S-adenosylmethionine]","HDX-MS, PqqDES versus PqqDE",[1],"When SAM was added to the PqqDE complex, we identified one type I peptide"
PqqA (from UniProt Q49148),Kd,[2],0.39 µM
PqqD (from UniProt Q49148),Kd,[3],4.5 µM
